Reference: patent US20250333486A1, “Anti-HSP90 alpha antibody and uses thereof” (NATIONAL HEALTH RESEARCH INSTITUTES, priority 2021, published 2025)
Entries after “also recorded” stand apart in the source; their conditions may differ.

Columns and labels:
PANC-1 cells = assay: Transwell invasion assay, rHSP90α-induced PANC-1 invasion; type: cell-based, human; conditions: 15 μg/ml rHSP90α plus 10 μg/ml antibody
Procedure: In a 37° C. and 5% CO2 humidified incubator, cancer cells were subjected to serum starvation in 0.5% FBS-containing medium for 16 h, and then added […] After another 24 h, the treated cells were harvested as aliquots (1×10^5 cells per aliquot) in 0.5% FBS-containing culture medium, and then each aliquot was seeded into a top chamber of Transwell inserts pre-coated with 5-fold diluted Matrigel (BD Biosciences). Cells were allowed 16 h to invade through the Matrigel toward the bottom chambers containing culture medium plus 10% FBS. The filters of the Transwell inserts were then fixed and stained with Giemsa. Invasive cells on the lower side of filters were photographed using the Axiovert S100/AxioCam HR microscope system (Carl Zeiss, Oberkochen, Germany) and further quantified by the Image-Pro Plus software (Media Cybernetics, Inc., Silver Spring, MD, USA).

[1] = tested on: SW620, PANC-1, and Panc 02 cells; assay: Cell spheroid-forming assay, rHSP90α-induced gain-of-stemness; type: cell-based, human and mouse; conditions: conclusion statement
Procedure: One thousand cancer cells were seeded onto each well of 24-well plates pre-coated with a 4-mm thick layer of 0.5% agarose. After incubation 24 h with serum-free medium at 37° C. plus a 5% CO2 humidified atmosphere, cells were added with PBS or 15 μg/ml of rHSP90α in the absence or presence of 10 μg/ml of control IgG or the tested anti-HSP90α antibody. The incubation was kept for 10-14 days with supplements of some fresh serum-free medium every 3 days. Finally, the cell spheroids characterized by tight, non-adherent, and >100 μm in diameter were photographed and counted under an Olympus IX 71 inverted microscope (Center Valley, PA, USA). The spheroid formation % was calculated by the formula: (number of cell spheroids/1000)×100%.

Solubility of antibody = type: physicochemical
[2] = Dynamic Light Scattering assay; type: physicochemical
[3] = tested on: Panc 02 plus EndoMT cell grafts; assay: Prophylactic efficacy in desmoplastic mouse PDAC transplant model; type: in vivo; conditions: 5 mg/kg IV, 8 doses at 3-day intervals from Day-4
Procedure: Mouse experiments were performed with the permission of the Institutional Animal Care and Use Committee of National Health Research Institutes (NHRI-IACUC-106031-A, 109022-M2-S02, and 109196-A). To establish a desmoplastic tumor transplant model, C57BL/6 mice at 12 weeks of age were subcutaneously inoculated with a mix of Panc 02 cells and EndoMT-derived CAFs (i.e. OPN-treated 3B-11 cells). See Fan C S, Chen L L, Hsu T A, et al. Endothelial-mesenchymal transition harnesses HSP90α-secreting M2-macrophages to exacerbate pancreatic ductal adenocarcinoma. J Hematol Oncol 2019;12:138; and Chua K V, Fan C S, Chen L L, Chen C C, Hsieh S C, Huang T S. Octyl gallate induces pancreatic ductal adenocarcinoma cell apoptosis and suppresses endothelial-mesenchymal transition-promoted M2-macrophages, HSP90α secretion, and tumor growth. Cells 2020;9(1):91. Sizes of developing tumors were superficially measured with a Vernier caliper, and tumor volumes were calculated with the formula ½×length×width^2. Real tumors were weighed when mice were sacrificed. To establish a desmoplastic tumor transplant model in humanized mice, NOD-SCID IL2R^null (ASID) mice transplanted with human hematopoietic stem cells (hHSC) were subcutaneously inoculated with a mix of PANC-1 cells and OPN-treated HUVECs. The employed hHSC-transplanted ASID mice were produced from the National Laboratory Animal Center (Taipei, Taiwan) and all contained human CD45^+ cell levels more than 38% of total lymphocytes. To establish an M2-macrophage-exacerbated mouse PDAC model, C57BL/6 mice were subcutaneously inoculated with a mix of Panc 02 cells and rHSP90α-treated BMDMs. Additionally, LSL-KrasG12D/Pdx1-Cre transgenic mice were adopted as a spontaneously PDAC-developing mouse model to evaluate the therapeutic efficacy of HH01 antibody. LSL-KrasG12D and Pdx1-Cre breeder mice were obtained from the Mouse Models of Human Cancers Consortium Repository of the National Cancer Institute (Frederick, Maryland, USA). LSL-KrasG12D mice were crossed with Pdx1-Cre mice to generate LSL-KrasG12D/Pdx1-Cre mice.
For assaying the HSP90α-binding activities of the prepared antibodies, 96-well plates were coated with 12.5 ng/ml of rHSP90α in the capture buffer (BioLegend, San Diego, CA, USA) by overnight incubation at 4° C. The coated plates were washed twice with PBST and then blocked with PBST plus 3% bovine serum albumin (BSA). […] The reactions were stopped by the addition of 0.5 M H2SO4, and OD450 values were measured by an Infinite M200 microplate reader (TECAN, Männedorf, Switzerland). Additionally, the immunoglobulin (IgG) isotype characterization of anti-HSP90α antibodies was performed by using the Mouse Ig Isotyping ELISA Ready-Set-Go!™ Kit (eBioscience™, Thermo Fisher Scientific, Waltham, MA, USA). […]

[4] = Mouse splenic enlargement; conditions: in vivo

B1: HH01: humanized anti-HSP90α IgG1 antibody, mutant of Clone-2-chimera; VH SEQ ID NO: 12, VL SEQ ID NO: 17 (antibody, V domains shown)
VH: EVQLVESGGGLVQPGGSLRLSCAASGFTFKTYAMNWVRQAPGQGLEWVARIRSKSRNYATYYADSVKDRFTISRDDSKNQFYLQMNNLRTEDTAVYYCVVGGSGFDYWGQGTTLTVSS
VL: DVVMTQTPLSLPVSLGDQASISCRSSQSIVHSNGNTYLEWYLQKPGQSPQLLIYKVSNRFSGVPDRFSGSGSGTDFTLTISSVEAEDLGVYYCFQGSHVPWTFGGGTKLEIK
modifications: Heavy chain variable region; Light chain variable region
Question: Which results are given for B1?
Answer: suppression of rHSP90α-induced invasiveness of PANC-1 cells (PANC-1 cells): superior to Clone-2-hB, Clone-2-hC, and their parental Clone-2; spheroid-forming activities of pancreatic adenocarcinoma and colorectal cancer cell lines [1]: potently suppresses; water solubility (Solubility of antibody): quite water-soluble; solubility in PBS (Solubility of antibody; PBS): > 10000 µg/mL; aggregate formation [2]: did not easily form aggregate; also recorded: not easy to form aggregate; size of average diameter ([2]; Dynamic Light Scattering): 19.33 nm; size range ([2]; Dynamic Light Scattering): 10-50 nm; kinetics of the tumor growth [3]: potently suppressed; serum HSP90α levels [3]: significantly reduced; tumor desmoplasia (Masson trichrome) [3]: significantly prevented; tumor sizes (weights) on Day-30 [3]: significantly repressed; mouse splenic enlargement [4]: will not cause mouse splenic enlargement
